# Data from patent US20030148956A1 (PROCTER AND GAMBLE, published 2003).
# Ends that are not written are not given here.
# T1: corticotropin releasing factor 2 receptor
# T1 sequence (Q13324 whole entry, species assumed, looked up): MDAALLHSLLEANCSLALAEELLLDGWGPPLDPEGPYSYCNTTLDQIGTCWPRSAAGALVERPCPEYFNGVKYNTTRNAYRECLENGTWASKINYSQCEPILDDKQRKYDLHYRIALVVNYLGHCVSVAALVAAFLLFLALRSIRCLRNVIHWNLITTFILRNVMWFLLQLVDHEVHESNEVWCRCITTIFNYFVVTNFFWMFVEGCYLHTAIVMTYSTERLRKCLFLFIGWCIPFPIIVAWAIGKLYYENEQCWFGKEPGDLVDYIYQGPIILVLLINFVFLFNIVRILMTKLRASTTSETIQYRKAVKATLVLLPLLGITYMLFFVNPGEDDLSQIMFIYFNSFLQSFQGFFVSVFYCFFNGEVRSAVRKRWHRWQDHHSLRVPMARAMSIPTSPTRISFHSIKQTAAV
# Assays:
# [1] = target: T1, corticotropin releasing factor 2 …; test: cell-based or functional assay
# [2] = target: corticotropin releasing factor 1 receptor; test: cell-based or functional assay
Binder,CRF2R EC50 [1] [nM],CRF2R Emax % [1] [%],CRF1R EC50 [2] [nM],CRF1R Emax % [2] [%]
ZGPPISIDLPYQLLRKVIEIEKQEKEKQQAANNARLLARI (C-terminal amide) [SEQ ID NO 286],13.5,92.5,1000,19.2
ZGPPISIDLPYQLLRKMIEIEKQEKEKQQAANNARLLAR (C-terminal amide) [SEQ ID NO 287],11.3,100,1000,
ZGPPISIDLPYQLLRKMIEIEKQEKEKQQAANNARLLAR (C-terminal amide) [SEQ ID NO 288],14.7,100,838,
ZGPPISIDLPYWLLRKMIEIEKQEKEKQQAANNARLLARI (C-terminal amide) [SEQ ID NO 289],12.2,97.3,1000,69.5
ZGPPISIDLPIILLRKMIEIEKQEKEKQQAANNARLLARI (C-terminal amide) [SEQ ID NO 290],100,100,1000,6.4
ZGPPISIDLPTWLLRKVIEIEKQEKEKQQAANNARLLARI (C-terminal amide) [SEQ ID NO 291],100,63.8,1000,4.75
ZGPPISIDLPTWLLRKMIEIEKQEKEKQQAANNARLLARI (C-terminal amide) [SEQ ID NO 292],100,86.1,1000,7
ZGPPISIDLPQILLRKVIEIEKQEKEKQQAANNRLLLDTI (C-terminal amide) [SEQ ID NO 293],40.3,87,520,95.3
ZGPPISIDLPQILLRKVIEIEKQEKEKQQAANNARLLARI (C-terminal amide) [SEQ ID NO 294],100,100,1000,13.6
ZGPPISIDLPIILLRKVIEIEKQEKEKQQAANNARLLARI (C-terminal amide) [SEQ ID NO 295],55,67.6,1000,5.3
HHHHHHIVLSLDVPIGLLQILLEQARARAAREQATTNARILARN-NH2 [SEQ ID NO 296],6.66,65,100,4
ZGPPISIDLPIILLRKVIEIEKQEKEKQQAANNRLLLDTI (C-terminal amide) [SEQ ID NO 297],100,88.3,1000,27.2
ZGPPISIDLPIFLLRKMIEIEKQEKEKQQAANNALLLATI (C-terminal amide) [SEQ ID NO 298],82,98.8,1000,20.1
ZGPPISIDLPQILLRKVIEIEKQEKEKQQAANNALLLATI (C-terminal amide) [SEQ ID NO 299],46.4,71.5,1000,10.2
IVLSLDVPIGLLQKVIEIEKQEKEKQQATTNARILARV-NH2 [SEQ ID NO 300],17.1,100,1000,7.95
ZGPPISIDLPTALLRKMIEIEKQEKEKQQAANNRLLLDTI (not fully specified; C-terminal amide) [SEQ ID NO 301],50.5,88.4,690,84.1
ZGPPISIDLPQALLRKMIEIEKQEKEKQQAANNRLLLDTI (not fully specified; C-terminal amide) [SEQ ID NO 302],36.2,100,366,100
ZGPPISIDLPAALLRKMIEIEKQEKEKQQAANNRLLLDTI (not fully specified; C-terminal amide) [SEQ ID NO 303],27.2,100,582,100
ZGPPISIDLPHALLRKMIEIEKQEKEKQQAANNRLLLDTI (not fully specified; C-terminal amide) [SEQ ID NO 304],19.3,92.5,116,100

# The remaining lines, values ahead:
CRF2R EC50 [1] [nM],CRF2R Emax % [1] [%],CRF1R EC50 [2] [nM],CRF1R Emax % [2] [%],Binder
35.5,95.2,1000,59.5,ZGPPISIDLPVALLRKMIEIEKQEKEKQQAANNRLLLDTI (not fully specified; C-terminal amide) [SEQ ID NO 305]
27.6,100,608,97.7,ZGPPISIDLPIALLRKMIEIEKQEKEKQQAANNRLLLDTI (not fully specified; C-terminal amide) [SEQ ID NO 306]
5.82,96.5,78.4,92.7,ZGPPISIDLPFALLRKMIEIEKQEKEKQQAANNRLLLDTI (not fully specified; C-terminal amide) [SEQ ID NO 307]
3.3,72.8,63.5,100,ZGPPISIDLPLALLRKMIEIEKQEKEKQQAANNRLLLDTI (not fully specified; C-terminal amide) [SEQ ID NO 308]
5.55,99.9,108,96.3,ZGPPISIDLPYALLRKMIEIEKQEKEKQQAANNRLLLDTI (not fully specified; C-terminal amide) [SEQ ID NO 309]
8.7,87.5,1000,45.3,ZGPPISIDLPYWLLRKMIEIEKQEKEKQQAANNALLLDTI (C-terminal amide) [SEQ ID NO 310]
11.7,100,1000,29.7,ZGPPISIDLPYWLLRKVIEIEKQEKEKQQAANNALLLDTI (C-terminal amide) [SEQ ID NO 311]
14.1,95,870,62,ZGPPISIDLPYHLLRKVIEIEKQEKEKQQAANNALLLDTI (C-terminal amide) [SEQ ID NO 312]
11.1,95,704,87.1,ZGPPISIDLPYHLLRKVIEIEKQEKEKQQAANNALLLATI (C-terminal amide) [SEQ ID NO 313]
10.3,99.8,978,82.4,ZGPPISIDLPYHLLRKMIEIEKQEKEKQQAANNALLLDTI (C-terminal amide) [SEQ ID NO 314]
9.35,81.7,454,100,ZGPPISIDLPYHLLRKMIEIEKQEKEKQQAANNALLLAT (C-terminal amide) [SEQ ID NO 315]
10.2,94.5,222,92.3,ZGPPISIDLPFFLLRKVIEIEKQEKEKQQAANNALLLDTI (C-terminal amide) [SEQ ID NO 316]
9.3,88.3,188,100,ZGPPISIDLPFFLLRKVIEIEKQEKEKQQAANNALLLATI (C-terminal amide) [SEQ ID NO 317]
9.95,95.4,134,92.8,ZGPPISIDLPFFLLRKMIEIEKQEKEKQQAANNALLLDTI (C-terminal amide) [SEQ ID NO 318]
8.5,95,106,88.3,ZGPPISIDLPFFLLRKMIEIEKQEKEKQQAANNALLLATI (C-terminal amide) [SEQ ID NO 319]
19.1,100,718,68.8,ZGPPISIDLPLQLLRKVIEIEKQEKEKQQATTNARILARV (C-terminal amide) [SEQ ID NO 320]
19.6,86.8,1000,33.8,ZGPPISIDLPFQLLRKTIEIEKQEKEKQQATTNARLLDRV (C-terminal amide) [SEQ ID NO 321]
23.1,96.5,1000,10.7,IVLSLDVPIGLLQKMIEIEKQEKEKQQATTNARILARV-NH2 [SEQ ID NO 322]
